The target in assay [1] is human VISTA, native (on anti-CD3-activated human T cells and PBMCs) (human (homo sapiens)).
The target is the same in assay [2]. This is another data set of the same source.

B1: Recombinant human VSIG3 Fc Chimera (Fc fusion)
chain: LEVSESPGSIQVARGQTAVLPCTFTTSAALINLNVIWMVTPLSNANQPEQVILYQGGQMFDGAPRFHGRVGFTGTMPATNVSIFINNTQLSDTGTYQCLVNNLPDIGGRNIGVTGLTVLVPPSAPHCQIQGSQDIGSDVILLCSSEEGIPRPTYLWEKLDNTLKLPPTATQDQVQGTVTIRNISALSSGLYQCVASNAIGTSTCLLDLQVISPQPRNIGLIAG
In assay [1], B1 displayed an ED50 of inhibition of MIP-1 alpha secretion, anti-CD3-activated human PBMCs (Quantikine ELISA) of 0.5 µg/mL; an ED50 of inhibition of Rantes secretion, anti-CD3-activated human PBMCs (Quantikine ELISA) of 0.5 µg/mL; a concentration at which inhibition of CXCL11 secretion occurred, anti-CD3-activated human PBMCs (Quantikine ELISA) of 2 µg/mL; a concentration at which inhibition of IL-17 secretion occurred, anti-CD3-activated human PBMCs (Quantikine ELISA) of 10 µg/mL. In assay [2], this molecule gave a division of CFSE-labeled human CD3+ T cells with plate-bound anti-CD3 and rhVSIG-3 10 µg/mL, flow cytometry (% CD3+ T cells dividing (72 hours)) of less than 25.

These data come from US11649285B2.
